Paper PMC8382915

Experiments:
[1] = target: Bacteroidetes bacterium GWA2_30_7 CuZn superoxide dismutase (BbCuZnSOD) (Bacteroidetes bacterium GWA2_30_7); assay: SEC-MALS; size-exclusion chromatography coupled static light scattering (SEC-SLS), masses from refractive index; 20 mM Tris-HCl pH 7.4, 150 mM NaCl
[2] = target: Rickettsiales bacterium TMED131 CuZn superoxide dismutase (RbCuZnSOD) (Rickettsiales bacterium TMED131); assay: as above

Row | Substance | stoichiometry N [1] | stoichiometry N [2]
1 | Bacteroidetes bacterium GWA2_30_7 CuZn superoxide dismutase (BbCuZnSOD) (enzyme) | 2 | –
2 | Rickettsiales bacterium TMED131 CuZn superoxide dismutase (RbCuZnSOD) (enzyme) | – | 2
